29 molecules from patent US20120093811A1 (published 2012) can be followed below.

Residue numbers refer to the chain shown, from its start.

Experiment [1] deals with T1, Source 1 VEGF-D, mature dimeric recombinant human VEGF-D (CSIRO) (human, UniProt O43915 89-205).
T1 construct: Whole entry named; also called Source 1 VEGF-D dimer; VEGF-D dimer
T1 sequence: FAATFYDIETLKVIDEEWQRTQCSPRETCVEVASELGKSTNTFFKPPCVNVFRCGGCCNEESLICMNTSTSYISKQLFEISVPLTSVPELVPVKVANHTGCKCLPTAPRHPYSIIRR
Briefly: SPR Protocol A: IgG captured by anti-human Fc, VEGF-D dimer as analyte. As for the experimental part:
(§1) Protocol A: The first assay format, Protocol A, used an assay system where IgGs were captured on a biosensor chip surface using an anti-human IgG (Fc) antibody and the Source 1 VEGF-D dimer run over the chip as the analyte in solution. This ensured that all IgG molecules were presented to the antigen in an active orientation.
(§2) The SPR protocol was slightly modified to compensate for the dimeric nature of the VEGF-D. Ig-1A or IgG variants were analyzed using an anti-human capture kit as described for Anti-human IgG (Fc) capture above, except that 1000 RU of the IgG or IgG variant was captured on the anti-human chip surface. […] The kinetics generated using this approach are accurate within the experimental parameters set. This standard assay protocol is best suited to studying 1:1 interactions and thus, may not be ideal for analyzing binding between the IgG variants and the VEGF-D dimer. In light of this, Protocol B was also used.

Experiment [2] has as its target T1, Source 1 VEGF-D, mature dimeric …. Briefly: SPR Protocol A, KD against that of Ig-1A. The protocol:
as §1, §2

For experiment [3], the target named is T2, Source 2 VEGF-D, purified recombinant human VEGF-D monomer (R&D Systems, Catalog Number 622-VD/CF) (human, UniProt O43915 93-201).
T2 sequence: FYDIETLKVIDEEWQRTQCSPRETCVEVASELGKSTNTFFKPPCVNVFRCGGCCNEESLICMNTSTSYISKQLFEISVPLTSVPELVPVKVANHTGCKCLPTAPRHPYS
Briefly: cell-based or functional assay.

Experiment [4] deals with T1, Source 1 VEGF-D, mature dimeric …. The experiment can be described thus: cell-based or functional assay.
Experiment [5] addresses T3, VEGF-D (recombinant human; source not given) (human, UniProt O43915 89-205, limits assumed).
T3 construct: also used here as target of IC50 values averaged over Source 1 and Source 2; also called vascular endothelial growth factor-D
T3 sequence: T1 sequence
The experiment can be described thus: SPR (BIAcore), KD against that of scFv 1A. The protocol:
(§3) scFv variants were fully characterized using a BIAcore™ biosensor. All isolated scFv samples were purified as monomer peaks by anti-FLAG affinity chromatography followed by gel filtration chromatography. BIAcore™ analysis was performed by directly immobilizing VEGF-D on a CM5 surface using amine coupling, with the scFv run as the analyte. Analysis of binding was carried out using the BIAevaluation kinetic analysis software. All repeats were separate protein expressions and were performed at 25° C.
(§4) Clones F61, A63, AR7, AW61, CJ37, DI126 and DA18 were produced in large-scale expression cultures and purified by anti-FLAG affinity chromatography and gel filtration. The binding kinetics against VEGF-D were then measured using a BIAcore™ biosensor as described previously.

In experiment [6] the target is T3, VEGF-D (recombinant human; source not …). Briefly: SPR (BIAcore), VEGF-D amine-coupled on CM5, purified scFv as analyte. The protocol: as §3, §4
A general note: In SPR one partner is held on a chip, and binding of the other changes the refractive index at the surface.

For experiment [7] the target is unchanged. Briefly: SPR (BIAcore) off-rate ranking of scFv clones. As for the experimental part:
Screening based on scFv binding properties involved surface plasmon resonance (SPR) measurements with a BIAcore™ biosensor. scFv variants were expressed in 200 μL E. coli cultures and the supernatants used to generate crude off-rate only kinetics, which were assessed “relative” to 1A, or other variants.

B1: humanized IgG antibody derived from clone HX28 (antibody, V domains shown)
VH: QVQLVQSGAKVKQPGASVKASCKASGYTFTGYNMYWVRQAPGQGLEWMGYIDPYSGDTTYNQKFKGRVTMTTDTSTSTAYMELRSLRSDDTAVYYCARTSYYGGMDYWGRGTLVTVAS
VL: DIVMTQTPLSSPVTLGQPASISCRSSQSLVHSNGNTYLHWLQQRPGQPPRLLIYKVSNRFSGVPGRFSGSGAGTDFTLKISRVEAEDVGVYYCSQSTHVPRTFGQGTKLEIKR
notes: IgG
A word on the Kd: it is a measure of binding affinity in units of concentration. A word on the koff: it is a measure of how fast the partners let go of each other. A word on the kon: it is the second-order rate constant of association. On to B1, for which, in experiment [1], the Kd was 0.383 nM, the koff was determined as 0.00014 s⁻¹ and the kon stood at 360000 M⁻¹ s⁻¹. The “Fold-improvement with respect to Ig-1A” value in experiment [2] is 1.8 fold. The “rank in the VEGFR-3-Ba/F3 bioassay” value in experiment [3] stood at 1 rank. For the same molecule, the “rank in the VEGFR-3-Ba/F3 bioassay” value in experiment [4] came out at 1 rank.

B2: scFv clone A63 (scFv)
scFv: QVQLVQSGAKVKQPGASVKASCKASGYTFTGYNMYWVRQAPGQGLEWMGYIDPYNGDTTYNQKFKGRVTMTTDTSTSTAYMELRSLRSDDTAVYYCARTSYYGGMDYWGRGTLVTVASGGGASGGGGSGGGGSDIVMTQTPLSSPVTLGQPASISCRSSQSLVHSNGNTYLHWLQQRPGQPPRLLIYKVSNRFSGVPDRFSGSGAGTDFTLKISRVEAEDVGVYYCSQSTHVPRTFGQGTKLEIKR
B2: the “Fold-improvement with respect to clone 1A” value in experiment [5] is 2.7 fold. For the same molecule, in experiment [6], the Kd was 4.83 nM, the koff was found to be 0.0072 s⁻¹ and the kon was determined as 1.49e+06 M⁻¹ s⁻¹. In addition, the koff in experiment [7] was 0.00327 s⁻¹.

B3: scFv clone G38 (scFv)
scFv: B2 scFv with K10E, A20V, A40V, V114A
Take B3: the koff in experiment [7] was 0.00772 s⁻¹.

B4: scFv clone P88 (scFv)
scFv: B2 scFv with K10E, A20V, T138I
As for B4, the koff in experiment [7] came to 0.00785 s⁻¹.

B5: scFv clone HU75 (scFv)
scFv: B2 scFv with K10E, A20V, E82K, S144G, Q238R
On to B5, for which, in experiment [7], the koff turned out to be 0.00181 s⁻¹.

B6: scFv clone W25 (scFv)
scFv: B2 scFv with K10E, A20V, E46G
Consider B6, for which the koff in experiment [7] was found to be 0.0046 s⁻¹.

B7: scFv clone DI26 (scFv)
scFv: B2 scFv with N55S
notes: also called DI126
B7: the “Fold-improvement with respect to clone 1A” value in experiment [5] came out at 4.2 fold. In experiment [6], the Kd came out at 3.12 nM, the koff came to 0.0093 s⁻¹ and the kon came to 2.98e+06 M⁻¹ s⁻¹. For the same molecule, in experiment [7], the koff came to 0.00361 s⁻¹.

B8: scFv clone H71 (scFv)
scFv: B2 scFv with K10E, K19R, A20V, T69A, S158T
On to B8, for which the koff in experiment [7] came out at 0.00653 s⁻¹.

B9: scFv clone I71 (scFv)
scFv: B2 scFv with K10E, K19R, A20V
In the case of B9, the koff in experiment [7] is 0.00661 s⁻¹.

B10: scFv clone K89 (scFv)
scFv: B2 scFv with K10E, A20V, S25R
For the molecule B10, the koff in experiment [7] stood at 0.00403 s⁻¹.

B11: scFv clone V37 (scFv)
scFv: B2 scFv with K10E, A20V, A40V
Regarding B11, the koff in experiment [7] turned out to be 0.00794 s⁻¹.

B12: scFv clone F61 (scFv)
scFv: B2 scFv with K10E, A20V, E82K
Take B12: in experiment [5], the “Fold-improvement with respect to clone 1A” value stood at 4 fold. In experiment [6], the Kd came to 3.31 nM, the koff was 0.00899 s⁻¹ and the kon worked out at 2.72e+06 M⁻¹ s⁻¹. In addition, the koff in experiment [7] came to 0.00335 s⁻¹.

B13: scFv clone HH41 (scFv)
scFv: B2 scFv with K10E, A20V, E82K, S165G
For B13, the koff in experiment [7] turned out to be 0.00104 s⁻¹.

B14: scFv clone Z49 (scFv)
scFv: B2 scFv with K10E, A20V, D89G
B14: in experiment [7], the koff amounted to 0.00497 s⁻¹.

B15: scFv clone HX28 (scFv)
scFv: B2 scFv with N55S, D198G
As for B15, the koff in experiment [7] came to 0.00643 s⁻¹.

B16: scFv clone Q30 (scFv)
scFv: B2 scFv with K10E, A20V, T112A
Regarding B16, in experiment [7], the koff is 0.0072 s⁻¹.

B17: scFv clone AW61 (scFv)
scFv: B2 scFv with K10E, A20V, V68A, E82K
As for B17, the “Fold-improvement with respect to clone 1A” value in experiment [5] came out at 3.1 fold. Moreover, in experiment [6], the Kd worked out at 4.23 nM, the koff came out at 0.00828 s⁻¹ and the kon turned out to be 1.96e+06 M⁻¹ s⁻¹. The koff in experiment [7] was found to be 0.00222 s⁻¹.

B18: scFv clone HH69 (scFv)
scFv: B2 scFv with N55S, S144G, Q238R
In the case of B18, the koff in experiment [7] was found to be 0.00212 s⁻¹.

B19: scFv clone H44 (scFv)
scFv: B2 scFv with K10E, A20V, E46G, G131R, V221M
notes: G131R lies in the scFv linker
As for B19, the koff in experiment [7] was determined as 0.00657 s⁻¹.

B20: scFv clone CJ37 (scFv)
scFv: B2 scFv with K10E, A20V, E82K, Q238R
Turning to B20, in experiment [5], the “Fold-improvement with respect to clone 1A” value stood at 3.7 fold. Also, in experiment [6], the Kd was 3.55 nM, the koff is 0.00995 s⁻¹ and the kon is 2.81e+06 M⁻¹ s⁻¹. In addition, the koff in experiment [7] stood at 0.00732 s⁻¹.

B21: scFv clone AR74 (scFv)
scFv: B2 scFv with K10E, A20V, D73G, E82K, T99A
For B21, the “Fold-improvement with respect to clone 1A” value in experiment [5] was 6.2 fold. For the same molecule, in experiment [6], the Kd is 2.12 nM, the koff amounted to 0.00379 s⁻¹ and the kon stood at 1.79e+06 M⁻¹ s⁻¹. Also, the koff in experiment [7] stood at 0.00167 s⁻¹.

B22: scFv clone W36 (scFv)
scFv: B2 scFv with K10E, A20V, E46G
Turning to B22, the koff in experiment [7] was 0.00611 s⁻¹.

B23: scFv clone HW78 (scFv)
scFv: B2 scFv with K10E, A20V, S25R, S77G, E82K
For the molecule B23, the koff in experiment [7] turned out to be 0.00189 s⁻¹.

B24: scFv clone G75 (scFv)
scFv: B2 scFv with K10E, A20V, A40V, T112A
For B24, in experiment [7], the koff was 0.0072 s⁻¹.

B25: scFv clone G37 (scFv)
scFv: B2 scFv with Q3R, K10E, A20V, S100G
Take B25: the koff in experiment [7] worked out at 0.00586 s⁻¹.

B26: scFv clone Z23 (scFv)
scFv: B2 scFv with K10E, A20V, E46G, G131R
notes: G131R lies in the scFv linker
As for B26, the koff in experiment [7] was 0.00556 s⁻¹.

B27: scFv clone DE03 (scFv)
scFv: B2 scFv with S25G
Turning to B27, the koff in experiment [7] is 0.00798 s⁻¹.

B28: scFv clone I84 (scFv)
scFv: B2 scFv with K10E, A20V, A40V
As for B28, in experiment [7], the koff was 0.00738 s⁻¹.

B29: scFv clone G11 (scFv)
scFv: B2 scFv with K10E, A20V, D198G
On to B29, for which the koff in experiment [7] turned out to be 0.00464 s⁻¹.
